The Human Domainome abundance scans (Beltran et al. 2025)
± gives the uncertainty stated by the source.

B1: DnaJ homolog subfamily C member 5, residues 16 to 77; numbered along this chain, Q9H3Z4 (parent)
chain: LYHVLGLDKNATSDDIKKSYRKLALKYHPDKNPDNPEAADKFKEINNAHAILTDATKRNIYD

Variants of: B1
Assay: abundance fitness (aPCA) (normalised: wild type 0, dead -1); higher = more abundant; growth selection in yeast, the domain comes from the species named
Details: Homo sapiens

Abundance fitness, by site and new letter:
K17: F -0.52 ± 0.19, I -0.107 ± 0.17, Q -0.063 ± 0.09, G -0.251 ± 0.066, C -0.361 ± 0.1, M -0.09 ± 0.09, L -0.18 ± 0.07, E 0.084 ± 0.088, P -1.31 ± 0.13, R -0.032 ± 0.061, V 0.039 ± 0.079, H 0.057 ± 0.13, D -0.477 ± 0.47, A 0.048 ± 0.068, W -0.204 ± 0.069, T -0.07 ± 0.096, N -0.248 ± 0.34, S -0.153 ± 0.075
R21: A 0.379 ± 0.48
K31: T -0.139 ± 0.11, W -0.626 ± 0.11, S -0.51 ± 0.089, E -0.116 ± 0.11, C -0.64 ± 0.13, I -0.06 ± 0.16, Y -0.207 ± 0.15, A -0.065 ± 0.085, L -0.433 ± 0.083, D -0.118 ± 0.14, N -0.452 ± 0.18, F -0.371 ± 0.092, H -0.195 ± 0.17, P -0.379 ± 0.16, M -0.521 ± 0.17, Q -0.06 ± 0.12
I16: Y -0.649 ± 0.14, A -0.32 ± 0.089, S -0.435 ± 0.08, V -0.238 ± 0.072, K -0.45 ± 0.098, F -0.064 ± 0.18, L -0.285 ± 0.065, D -0.567 ± 0.13, N -0.615 ± 0.18, H -0.723 ± 0.13, E -0.305 ± 0.11, G -0.442 ± 0.073, P -0.587 ± 0.095, M -0.65 ± 0.091, C -0.44 ± 0.12, W -0.998 ± 0.094, R -0.586 ± 0.058, Q -0.437 ± 0.1
K22: L 0.039 ± 0.082, N -0.188 ± 0.32, H 0.169 ± 0.24, S 0.166 ± 0.099, A 0.117 ± 0.072, C -0.19 ± 0.13, W -0.339 ± 0.094, P -0.266 ± 0.12, Q 0.217 ± 0.11, I -0.179 ± 0.18, F -0.16 ± 0.17, V 0.168 ± 0.086, G 0.045 ± 0.078, M 0.32 ± 0.12, R 0.041 ± 0.075, Y -0.246 ± 0.14, E 0.249 ± 0.11
K18: P -0.623 ± 0.086, I -0.005 ± 0.13, Q -0.104 ± 0.11, R -0.13 ± 0.062, F 0.117 ± 0.21, N -0.34 ± 0.18, S 0.04 ± 0.07, T -0.025 ± 0.1, A 0.079 ± 0.1, E 0.11 ± 0.086, M 0.06 ± 0.09, Y -0.333 ± 0.19, D -0.062 ± 0.19, L -0.157 ± 0.067, W -0.226 ± 0.091, V -0.098 ± 0.069, C -0.101 ± 0.1
D14: L -0.238 ± 0.073, T -0.346 ± 0.099, V -0.341 ± 0.074, H -0.394 ± 0.26, A -0.166 ± 0.094, Y -0.431 ± 0.16, I -0.105 ± 0.14, P -0.348 ± 0.11, N -0.151 ± 0.15, S -0.242 ± 0.07, E -0.048 ± 0.099, F -0.848 ± 0.3, Q -0.394 ± 0.1, R -0.359 ± 0.056, W -0.357 ± 0.075, G -0.401 ± 0.065, K -0.209 ± 0.12, C -0.549 ± 0.11
A24: D -0.552 ± 0.15, S 0.044 ± 0.058, Q -0.093 ± 0.076, F 0.213 ± 0.1, E 0.028 ± 0.099, I 0.086 ± 0.096, L -0.095 ± 0.058, C 0.159 ± 0.074, G -0.377 ± 0.075, V 0.126 ± 0.068, Y 0.208 ± 0.091, K -0.034 ± 0.057, M -0.028 ± 0.12, R -0.041 ± 0.059, W 0.245 ± 0.084, P -0.449 ± 0.1, T 0.002 ± 0.064
S13: Y -0.188 ± 0.11, I 0.046 ± 0.18, T 0.055 ± 0.12, F -0.267 ± 0.091, V -0.162 ± 0.07, D 0.068 ± 0.11, G -0.376 ± 0.077, E -0.023 ± 0.087, P -0.272 ± 0.089, H -0.496 ± 0.15, W -0.336 ± 0.098, N 0.002 ± 0.23, L -0.04 ± 0.073, M 0.04 ± 0.12, R -0.354 ± 0.072
P33: C -0.327 ± 0.11, I -0.501 ± 0.16, A -0.032 ± 0.09, N -0.365 ± 0.22, K 0.209 ± 0.14, L -0.507 ± 0.075, Q -0.063 ± 0.11, G 0.111 ± 0.052, T -0.098 ± 0.076, S -0.121 ± 0.085, D -0.16 ± 0.14, V -0.225 ± 0.055, F -0.351 ± 0.18, H -0.798 ± 0.28, R 0.064 ± 0.053, E -0.035 ± 0.085, M -0.489 ± 0.1
P29: Q -0.377 ± 0.072, Y -0.413 ± 0.097, C -0.42 ± 0.11, M -0.386 ± 0.084, N -0.278 ± 0.067, H -0.539 ± 0.11, L -0.472 ± 0.066, F -0.542 ± 0.11, D -0.111 ± 0.092, T -0.292 ± 0.069, A -0.053 ± 0.071, S -0.159 ± 0.065, W -0.66 ± 0.077, V -0.414 ± 0.062, G -0.381 ± 0.064, R -0.422 ± 0.055, I -0.57 ± 0.095
Y20: H 0.109 ± 0.25, M -0.414 ± 0.089, P -0.093 ± 0.075, K -0.27 ± 0.14, V -0.28 ± 0.055, E 0.2 ± 0.071, C -0.182 ± 0.091, S -0.086 ± 0.068, I -0.603 ± 0.29, W 0.329 ± 0.075, T -0.236 ± 0.072, F 0.191 ± 0.12, G -0.189 ± 0.071, Q 0.015 ± 0.13, R -0.148 ± 0.055, L -0.505 ± 0.065, D -0.053 ± 0.12
K26: M 0.021 ± 0.083, T -0.189 ± 0.11, G -0.415 ± 0.079, D -0.12 ± 0.14, A -0.081 ± 0.065, F -0.385 ± 0.13, N -0.358 ± 0.11, I 0.244 ± 0.12, S -0.211 ± 0.079, C -0.318 ± 0.16, V -0.13 ± 0.06, W -0.477 ± 0.094, H -0.239 ± 0.15, Q 0.032 ± 0.11, P -0.264 ± 0.13, R -0.214 ± 0.084, E 0.155 ± 0.08, L -0.075 ± 0.065
L23: H -1.2 ± 0.41, Y -0.403 ± 0.17, M -0.209 ± 0.12, K -0.247 ± 0.11, W -0.423 ± 0.084, F -0.536 ± 0.17, V -0.525 ± 0.076, A -0.454 ± 0.11, Q -0.334 ± 0.1, P -0.438 ± 0.14, D -0.129 ± 0.15, S -0.423 ± 0.11, E -0.067 ± 0.12, N -0.052 ± 0.21, I -0.736 ± 0.47, G -0.308 ± 0.075
D30: A 0.14 ± 0.09, W -0.749 ± 0.087, V -0.207 ± 0.075, N -0.018 ± 0.098, K 0.084 ± 0.099, M -0.089 ± 0.17, G -0.171 ± 0.062, S 0.099 ± 0.069, F -0.828 ± 0.28, P -0.384 ± 0.1, R -0.207 ± 0.06, T 0.067 ± 0.14, E 0.01 ± 0.084, C -0.221 ± 0.13, Y -0.288 ± 0.15
D15: R -0.693 ± 0.084, T -0.367 ± 0.11, G -0.433 ± 0.098, A -0.042 ± 0.069, P -0.643 ± 0.12, S -0.382 ± 0.092, I -0.328 ± 0.14, E -0.067 ± 0.12, F -0.689 ± 0.23, L -0.412 ± 0.07, M -0.359 ± 0.14, H -0.679 ± 0.25, K -0.17 ± 0.099, C -0.24 ± 0.2, W -0.271 ± 0.069, Y -0.888 ± 0.2
N32: Y -0.67 ± 0.14, H -0.009 ± 0.1, T -0.251 ± 0.086, L -0.684 ± 0.073, V -0.396 ± 0.078, P -0.691 ± 0.19, D -0.282 ± 0.15, A -0.349 ± 0.19, G -0.434 ± 0.11, M -0.157 ± 0.094, S -0.3 ± 0.081, R -0.431 ± 0.076, F -0.24 ± 0.095, K -0.353 ± 0.11, W -0.179 ± 0.081
H28: F -0.541 ± 0.28, W -0.474 ± 0.35, Q 0.34 ± 0.34, A -0.06 ± 0.26, L -0.536 ± 0.16, E 0.179 ± 0.29, C -0.29 ± 0.29, S 0.219 ± 0.15, K 0.134 ± 0.2, G -0.037 ± 0.12, D 0.062 ± 0.16, Y -0.409 ± 0.13, V -0.459 ± 0.17, R -0.194 ± 0.17
S19: C -0.088 ± 0.12, K -0.391 ± 0.11, P -0.516 ± 0.052, W -0.813 ± 0.075, Q 0.042 ± 0.12, I -0.762 ± 0.4, G -0.3 ± 0.065, F -0.88 ± 0.16, R -0.317 ± 0.051, A 0.02 ± 0.078, E -0.091 ± 0.088, Y -0.299 ± 0.2, T -0.106 ± 0.12, H -0.333 ± 0.27, V -0.187 ± 0.067, D -0.485 ± 0.19
L25: R -0.069 ± 0.067, W -0.346 ± 0.088, A 0.039 ± 0.066, H -0.442 ± 0.23, K -0.159 ± 0.22, D 0.17 ± 0.089, P -0.21 ± 0.095, F -0.068 ± 0.085, M -0.101 ± 0.078, C -0.102 ± 0.11, N -0.073 ± 0.11, G -0.293 ± 0.064, V -0.007 ± 0.065, S -0.377 ± 0.08, Y -0.299 ± 0.12, T -0.025 ± 0.096, E 0.321 ± 0.11, Q 0.024 ± 0.11
Y27: C -0.239 ± 0.19, M -0.196 ± 0.12, E -0.07 ± 0.091, T -0.157 ± 0.16, I -0.715 ± 0.22, W 0.231 ± 0.099, K -0.379 ± 0.12, L -0.326 ± 0.062, G -0.27 ± 0.077, V -0.571 ± 0.095, A -0.344 ± 0.1, H 0.185 ± 0.24, F 0.185 ± 0.14, N -0.83 ± 0.36, R -0.543 ± 0.079, S -0.21 ± 0.083, D -0.316 ± 0.12, P -0.61 ± 0.16
